Earlier results, collected in US10463717B2, “Compositions in the form of an injectable aqueous solution comprising amylin, an amylin receptor agonist or an amylin analog, and a co-polyamino acid” (ADOCIA, priority 2016, dated 2019).
Like-named read-outs stand apart in the source and are kept apart here. No end group written: not given here.

Compound | pH of the solution above which fibrils form (described for the marketed peptide) | Stability of amylin in solution (acidic pH) | Stability of amylin in solution (neutral pH)
CC[C@H](C)[C@H](NC(=O)[C@@H]1CCCN1C(=O)CNC(=O)[C@H](Cc1ccccc1)NC(=O)[C@H](CC(N)=O)NC(=O)[C@H](CC(N)=O)NC(=O)[C@H](CO)NC(=O)[C@H](CO)NC(=O)[C@H](Cc1c[nH]cn1)NC(=O)[C@@H](NC(=O)[C@H](CC(C)C)NC(=O)[C@H](Cc1ccccc1)NC(=O)[C@H](CC(N)=O)NC(=O)[C@H](C)NC(=O)[C@H](CC(C)C)NC(=O)[C@H](CCCNC(=N)N)NC(=O)[C@H](CCC(N)=O)NC(=O)[C@@H](NC(=O)[C@H](C)NC(=O)[C@@H]1CSSC[C@H](NC(=O)[C@@H](N)CCCCN)C(=O)N[C@@H](CC(N)=O)C(=O)N[C@@H]([C@@H](C)O)C(=O)N[C@@H](C)C(=O)N[C@@H]([C@@H](C)O)C(=O)N1)[C@@H](C)O)C(C)C)C(=O)N[C@@H](CC(C)C)C(=O)N1CCC[C@H]1C(=O)N1CCC[C@H]1C(=O)N[C@H](C(=O)N[C@@H](CC(N)=O)C(=O)N[C@H](C(=O)NCC(=O)N[C@@H](CO)C(=O)N[C@@H](CC(N)=O)C(=O)N[C@H](C(=O)N[C@@H](Cc1ccc(O)cc1)C(N)=O)[C@@H](C)O)C(C)C)[C@@H](C)O [pramlintide, reference compound] | higher than 5.5 |  | 
amylin: 37 aminoacids peptide which is co-stored and co-secreted with insulin (KCNTATCATQRLANFLVHSSNNFGAILSSTNVGSNTY; not fully specified (C-terminus, bridges); cysteine pairing not given here; UniProt P10997 34-70, looked up) |  | about fifteen minutes | less than a minute
